T1: human TREM2 (human, UniProt Q9NZC2 19-174, limits assumed)
T1 sequence: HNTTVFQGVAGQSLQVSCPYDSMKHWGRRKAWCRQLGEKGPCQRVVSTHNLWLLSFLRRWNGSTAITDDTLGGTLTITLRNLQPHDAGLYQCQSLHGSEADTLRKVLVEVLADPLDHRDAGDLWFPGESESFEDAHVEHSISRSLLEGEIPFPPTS


Experiments:
human TREM2 [1] = molecular target: T1, human TREM2; test: yeast-displayed Fab FACS, 2nd screen 2 nM
human TREM2 [2] = molecular target: T1, human TREM2; test: yeast-displayed Fab FACS, 1st screen 10 nM
human TREM2 [3] = molecular target: T1, human TREM2; test: yeast-displayed Fab FACS, 2nd screen 10 nM

Row | binding signal fold over 6E7 parental (human TREM2 [1]) [fold] | binding signal fold over 6E7 parental (human TREM2 [2]) [fold] | binding signal fold over 6E7 parental (human TREM2 [3]) [fold] | Binder
1 | 3.15 | 4.23 | 4.7 | V25 (Fab, V domains shown) VH: EVQLVQSGAEVKKPGESLKISCKGSGYSFGSYWIAWVRQMPGKGLEWMGLIYPGDSDTRYSPSFQGQVTISADKSISTAYLQWSSLKASDTAMYFCARSRTFYYDSSDYFDYWGQGTLVTVSS VL: DIQMTQSPSSVSASVGDRVTITCRASQGISSWLAWYQQKPGKAPKLLIYAASSLANGVPSRFSGSGSGTDFTLTISSLQPEDFATYFCQQADSMPRTFGQGTKLEIK
2 | 3.69 | 3.46 | 3.49 | V37 (Fab, V domains shown) VH: EVQLVQSGAEVKKPGESLKISCKGSGYSHTSYWIAWVRQMPGKGLEWMGIIYPGDSDTRYSPSFAGQVTISADKSISTAYLQWSSLKASDTAMYFCARSRTFYYDSSDYFDYWGQGTLVTVSS VL: DIQMTQSPSSVSASVGDRVTITCRASQGISSWLAWYQQKPGKAPKLLIYAASSLQWGVPSRFSGSGSGTDFTLTISSLQPEDFATYFCQQADSYPRTFGQGTKLEIK
3 | 2.83 | 3.57 | 3.47 | V26 (Fab, V domains shown) VH: EVQLVQSGAEVKKPGESLKISCKGSGYSFTSYWIGWVRQMPGKGLEWMGTIYPGDSDTRYSPSFQGQVTISADKSISTAYLQWSSLKASDTAMYFCARQRTMYYDSSDYFDAWGQGTLVTVSS VL: DIQMTQSPSSVSASVGDRVTITCRASQGISSWLAWYQQKPGKAPKLLIYAASSLQRGVPSRFSGSGSGTDFTLTISSLQPEDFATYFCQQADSYPRTFGQGTKLEIK
4 | 3.41 | 4.48 | 4.16 | V40 (Fab, V domains shown) VH: EVQLVQSGAEVKKPGESLKISCKGSGYSFGSYWIAWVRQMPGKGLEWMGIIYPGDSDVRYSPSFQGQVTISADKSISTAYLQWSSLKASDTAMYFCARQRTFYYDSSDYSDYWGQGTLVTVSS VL: DIQMTQSPSSVSASVGDRVTITCRASQGISSWLAWYQQKPGKAPKLLIYAASSLQLGVPSRFSGSGSGTDFTLTISSLQPEDFATYFCQQADRFPRTFGQGTKLEIK
5 | 4 | 3.38 | 3.44 | V36 (Fab, V domains shown) VH: EVQLVQSGAEVKKPGESLKISCKGSGYSFTSYWLAWVRQMPGKGLEWMGIIYPGDSDTRYSPSFQGQVTISADKSISTAYLQWSSLKASDTAMYFCARSRTFYYDSSDYFDYWGQGTLVTVSS VL: DIQMTQSPSSVSASVGDRVTITCRASQGISSWLAWYQQKPGKAPKLLIYAASSRQNGVPSRFSGSGSGTDFTLTISSLQPEDFATYFCQQADSYPRTFGQGTKLEIK
6 | 0.84 | 1.53 | 1.67 | V29 (Fab, V domains shown) VH: EVQLVQSGAEVKKPGESLKISCKGSGYSFKSYWIAWVRQMPGKGLEWMGIIYPGDSDTRYSPSFQGQVTISADKSISTAYLQWSSLKASDTAMYFCARQRTFYYDSSDYFDYWGQGTLVTVSS VL: DIQMTQSPSSVSASVGDRVTITCRASQGISSWLAWYQQKPGKAPKLLIYAASSLQNGVPSRFSGSGSGTDFTLTISSLQPEDFATYFCQQADSFPRTFGQGTKLEIK
7 | 5.67 | 5.5 | 5.69 | V27 (Fab, V domains shown) VH: EVQLVQSGAEVKKPGESLKISCKGSGYSFTSYWIAWVRQMPGKGLEWMGIIYPGDSDTRYAPSFQGQVTISADKSISTAYLQWSSLKASDTAMYFCVRSRTFYYDSSDYFDYWGQGTLVTVSS VL: DIQMTQSPSSVSASVGDRVTITCRASQGISSWLAWYQQKPGKAPKLLIYAASSLQRGVPSRFSGSGSGTDFTLTISSLQPEDFATYFCQQADSFPRTFGQGTKLEIK

From patent US20220204611A1 (Amgen, published 2022)
